Experimental data taken from patent US20230151079.

Each substance was assayed on Recombinant protein (SEQ ID NO: 1), modified from sculptin of the tick Amblyomma cajennense.

Row | Substance | hydrolysis of recombinant protein by serine protease (SDS-PAGE, 6 h)
1 | factor Xa | factor Xa also converted the recombinant protein in fragments
2 | plasmin | strip of 20-kDa completely disappeared in recombinant protein incubated by plasm in and trypsin
3 | thrombin | strip intensity of 20-kDa (corresponding to non-digested recombinant protein) decreased and strips of lower molecular weight appeared in recombinant protein incubated by thrombin
4 | trypsin | strip of 20-kDa completely disappeared in recombinant protein incubated by plasm in and trypsin
